Laboratory results from patent US6861254.

Target: IgG agarose beads (Sigma)
Assay: pull-down with IgG agarose beads; recovered HS^act conversion activity

Substance: Protein A tagged mouse r3-OST-1 (from UniProt O35310 27-311)
- HS^act conversion activity extracted: 7000 units
- recovery of initial HS^act conversion activity: 10%
